US20200268847A1, “Methods of Treating Newly Diagnosed Multiple Myeloma with a Combination of An Antibody that Specifically Binds CD38, Lenalidomide and Dexamethasone” (Janssen Biotech, Inc., priority 2019, published 2020)

System: patients with newly diagnosed multiple myeloma ineligible for HDC and ASCT
Assay: MAIA: safety, adverse events graded by NCI-CTCAE version 4, treatment discontinuations
Text: Safety will be measured by adverse events, laboratory test results, ECGs, vital sign measurements, physical examination findings, and assessment of ECOG performance status score.
Safety analyses included adverse event assessment graded in severity according to NCI-CTCAE version 4, electrocardiograms, clinical laboratory testing, physical examinations, and vital signs.
The safety population included patients who received any dose of trial treatment.

## Daratumumab (DARZALEX®): antibody that specifically binds CD38, heavy chain of SEQ ID NO: 9 and light chain of SEQ ID NO: 10 [reference compound]
% of patients with infusion reactions
  infusion-related reactions occurring during the first dose: 98.0%
% of patients, any grade
  infusion-related reactions: 40.9%
Grade 4 hypertension
  patients who discontinued daratumumab treatment due to an infusion-related reaction: one
In vivo
  infusion-related reactions, grade 3 or 4 events: 2.7%
  infusion-related reactions, grade 5 events: no grade 5 events were reported
